± gives the standard error. For some assays here: This sample holds only a part of the variants without activity.
B1: glmS ribozyme (parent)
chain: AUAAAAGCGCCAGAACUACAGAAAUGUAGUUGACGAGGAGGAGGUUUAUCGAAUUUUCGGCGGAUGCCUCCAAA

What was measured:
Settings in all cases: with glucosamine-6-phosphate
glucosamine-6-phosphate [1] = variants of: B1; assay: kcat; higher = faster cleavage; RNA array
Method in brief: (§1)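 E. coli RNA polymerase transcribed barcoded ribozyme variants in situ on sequenced MiSeq chips, which were tracked via a hybridised Cy3 probe at 37 °C. Tiles were imaged over ~14 h after glucosamine-6-phosphate (40 μM to 10 mM) in HEPES/KCl/Mg(OAc)2 buffer was flowed in. Normalised per-tile medians were fit to one- or two-exponential decays for kobs, and kcat and KM came from weighted Michaelis–Menten fits.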

glucosamine-6-phosphate [2] = variants of: B1; assay: KM; higher = weaker cofactor use; RNA array
Method in brief: as §1

glucosamine-6-phosphate [3] = variants of: B1; assay: self-cleavage kobs at 640 uM GlcN6P; higher = faster cleavage; RNA array
Method in brief: as §1

glucosamine-6-phosphate [4] = variants of: B1; assay: self-cleavage kobs at 2500 uM GlcN6P; higher = faster cleavage; RNA array
Method in brief: as §1

glucosamine-6-phosphate [5] = variants of: B1; assay: self-cleavage kobs at 10000 uM GlcN6P; higher = faster cleavage; RNA array
Method in brief: as §1

glucosamine-6-phosphate [6] = variants of: B1; assay: self-cleavage kobs at 160 uM GlcN6P; higher = faster cleavage; RNA array
Method in brief: as §1

glucosamine-6-phosphate [7] = variants of: B1; assay: self-cleavage kobs at 40 uM GlcN6P; higher = faster cleavage; RNA array
Method in brief: as §1

Variant | kcat (glucosamine-6-phosphate [1]) [s⁻¹] | KM (glucosamine-6-phosphate [2]) [µM] | self-cleavage kobs at 640 uM GlcN6P (glucosamine-6-phosphate [3]) [s⁻¹] | self-cleavage kobs at 2500 uM GlcN6P (glucosamine-6-phosphate [4]) [s⁻¹] | self-cleavage kobs at 10000 uM GlcN6P (glucosamine-6-phosphate [5]) [s⁻¹] | self-cleavage kobs at 160 uM GlcN6P (glucosamine-6-phosphate [6]) [s⁻¹] | self-cleavage kobs at 40 uM GlcN6P (glucosamine-6-phosphate [7]) [s⁻¹]
C16U A64C | 0.000145 ± 2.5e-05 | 2130 ± 970 | 2.44e-05 ± 1.1e-05 | 9.71e-05 ± 1.7e-05 | 0.000113 ± 1.6e-05 | – | –
G62C C70A | 1.23e-05 ± 3.2e-06 | – | – | – | – | – | –
U65C C67A | 0.000111 ± 9.5e-06 | 672 ± 220 | 6e-05 ± 1.4e-05 | 7.82e-05 ± 2.1e-05 | 0.000106 ± 1.6e-05 | – | –
G29C G66A | 0.00186 ± 0.00025 | 4030 ± 750 | 0.00027 ± 3.9e-05 | 0.000714 ± 0.00013 | 0.00132 ± 0.0002 | 6.45e-05 ± 1.3e-05 | –
A39U G43A | 0.000177 ± 1.5e-05 | 1170 ± 280 | 5.75e-05 ± 8.5e-06 | 0.000139 ± 1.6e-05 | 0.000152 ± 1.4e-05 | – | –
G32A A33G | 1.05e-05 ± 2.6e-06 | – | – | – | – | – | < 1e-05
G41A C71G | 0.000168 ± 7.8e-06 | 1080 ± 150 | 6.55e-05 ± 9.8e-06 | 0.000106 ± 2.1e-05 | 0.000154 ± 1.4e-05 | – | –
G59C U69G | 1.85e-05 ± 5.2e-06 | – | – | – | – | – | < 1e-05
A14U A64U G66C | 1.84e-05 ± 4.5e-06 | – | – | – | – | – | –
U31G C71G | 0.000461 ± 0.0001 | 408 ± 180 | – | 0.000329 ± 7.1e-05 | 0.000555 ± 9.7e-05 | 0.000111 ± 2.7e-05 | 5.48e-05 ± 1.3e-05
G35C C50G G60U | 3.38e-05 ± 1.4e-05 | – | – | – | – | 5.86e-05 ± 1.9e-05 | –
U30A G41C | 4.61e-05 ± 3.9e-06 | 5270 ± 1100 | – | – | – | – | < 1e-05
U57C C58G | 3.57e-05 ± 4.2e-06 | – | – | – | 3.19e-05 ± 1e-05 | – | –
A42U G43U A52G | < 1e-05 | – | – | < 1e-05 | – | – | –
G40C A53G | 0.00206 ± 0.00018 | 2160 ± 310 | 0.000539 ± 0.00012 | 0.00115 ± 0.00032 | 0.00166 ± 0.00025 | 0.000126 ± 3e-05 | 4.19e-05 ± 1.7e-05
G32U U46G | 0.000316 ± 0.00012 | – | 4.52e-05 ± 1.5e-05 | 6.3e-05 ± 1.1e-05 | 0.000169 ± 2e-05 | – | –
U47A C61U | 2.03e-05 ± 6.6e-06 | – | – | – | – | – | < 1e-05
U30A U57A | 6.66e-05 ± 1.8e-05 | – | 3.87e-05 ± 1.5e-05 | 3.73e-05 ± 1.2e-05 | 6.84e-05 ± 1.4e-05 | – | < 1e-05
U69G C70U | 4.03e-05 ± 6.8e-06 | – | 4.66e-05 ± 9.6e-06 | 5.03e-05 ± 8.5e-06 | 2.88e-05 ± 6.8e-06 | 4.73e-05 ± 1.4e-05 | –
G38A U47G C71G | 1.15e-05 ± 1.8e-06 | – | – | – | – | – | –
G13A C70G | 3.04e-05 ± 1.3e-05 | – | 5.03e-05 ± 1.9e-05 | 5.41e-05 ± 1.5e-05 | – | – | –
